In publication PMC9897555 (2023) one finds Kd data, which are given here for one molecule.

This assay addresses Spike protein S1 C-terminal domain 319-674 (Severe acute respiratory syndrome …, UniProt P0DTC2). Description: flow.

B1: LRRC15 (protein)
chain: YHGCPSECTCSRASQVECTGARIVAVPTPLPWNAMSLQILNTHITELNESPFLNISALIALRIEKNELSRITPGAFRNLGSLRYLSLANNKLQVLPIGLFQGLDSLESLLLSSNQLLQIQPAHFSQCSNLKELQLHGNHLEYIPDGAFDHLVGLTKLNLGKNSLTHISPRVFQHLGNLQVLRLYENRLTDIPMGTFDGLVNLQELALQQNQIGLLSPGLFHNNHNLQRLYLSNNHISQLPPSVFMQLPQLNRLTLFGNSLKELSPGIFGPMPNLRELWLYDNHISSLPDNVFSNLRQLQVLILSRNQISFISPGAFNGLTELRELSLHTNALQDLDGNVFRMLANLQNISLQNNRLRQLPGNIFANVNGLMAIQLQNNQLENLPLGIFDHLGKLCELRLYDNPWRCDSDILPLRNWLLLNQPRLGTDTVPVCFSPANVRGQSLIIINVNVAVPSVHVPEVPSYPETPWYPDTPSYPDTTSVSSTTELTSPVEDYTDLTTIQVTDDRSVWGMTQAQSG
The term Kd denotes the constant that tells how readily two partners part at equilibrium. Read a high Kd as weaker binding. The molecule B1 returned a Kd of around 260 nM.
